In patent publication US8409833B2 (Hokko Chemical Industry Co., Ltd., priority 2003, dated 2013):

Experiment: Reducing and oxidation activity of recombinant myo-inositol 2-dehydrogenase (BG10669 gene product)
Type: biochemical
Procedure: The myo-inositol 2-dehydrogenase reducing activity was measured as described below. 5 μl of a reaction solution (200 mM Tris buffer (pH 8.0), 2% of NADH, 1% of scyllo-inosose) was mixed with 5 μl of an enzyme solution, and the mixture was allowed to react at 36° C. for 30 min. Immediately after the reaction, 500 μl of water was added, and the absorbance at 340 nm was measured. From the blank value of a test tube prepared by using water instead of the enzyme solution, the decrease in the absorbance at 340 nm was measured. […] The reaction rate was calculated from the absorbance increments at the respective times.

B1: myo-inositol 2-dehydrogenase: recombinant myo-inositol 2-dehydrogenase, product of BG10669 gene derived from Bacillus subtilis 168 ATCC23857 (protein, UniProt P26935 1-344, looked up)
Inositol …: MSLRIGVIGTGAIGKEHINRITNKLSGAEIVAVTDVNQEAAQKVVEQYQLNATVYPNDDSLLADENVDAVLVTSWGPAHESSVLKAIKAQKYVFCEKPLATTAEGCMRIVEEEIKVGKRLVQVGFMRRYDSGYVQLKEALDNHVIGEPLMIHCAHRNPTVGDNYTTDMAVVDTLVHEIDVLHWLVNDDYESVQVIYPKKSKNALPHLKDPQIVVIETKGGIVINAEIYVNCKYGYDIQCEIVGEDGIIKLPEPSSISLRKEGRFSTDILMDWQRRFVAAYDVEIQDFIDSIQKKGEVSGPTAWDGYIAAVTTDACVKAQESGQKEKVELKEKPEFYQSFTTVQN
- oxidation activity on myo-inositol (1% myo-inositol, NAD^+, pH 8.0, 25° C.): have an activity to oxidize myo-inositol
- oxidation activity on scyllo-inositol (1% scyllo-inositol, NAD^+, pH 8.0, 25° C.): no activity to oxidize scyllo-inositol
- reducing activity on scyllo-inosose (NADH, pH 8.0, 36° C., 30 min): have an activity to reduce scyllo-inosose
